In PMC9398157:
Values joined by “and” are separate entries in the source; they are usually repeats but may differ in a detail not shown here. Identical values can stand only once. Like-named read-outs stand apart in the source and are kept apart here.

How the values were obtained:
[1] = target: DR5 on Colo205 and H-EMC-SS cells (Homo sapiens) (UniProt O14763); test: flow cytometry on cells
[2] = target: Death receptor 5 (human DR5), as used in SPR, Octet and ELISA (human) (UniProt O14763); test: SPR
[3] = target: Death receptor 5 (human DR5), as used in SPR, Octet and ELISA (human) (UniProt O14763); test: SPR; remark: listed apart in the source
[4] = target: DR5 on Colo205 and H-EMC-SS cells (Homo sapiens) (UniProt O14763); test: flow cytometry on cells; remark: listed apart in the source
[5] = target: DR5 on Colo205 and H-EMC-SS cells (Homo sapiens) (UniProt O14763)

- EC50 [1]: 73 pM
- EC50 [4]: 200 pM
Substance: IGM-8444 (antibody)
- Kd [2]: 85000 pM
- Kd [3]: < 11 pM
- cytotoxicity on Colo205 cells, IC50 (CellTiter-Glo viability after 24 hours) [5]: 1.1 ng/mL and 1.3 pmol/L
- cytotoxicity on H-EMC-SS cells, IC50 (CellTiter-Glo viability after 24 hours) [5]: 0.32 ng/mL and 0.37 pmol/L
